Experimental data reported in US20200190592A1, “PME-1 AS A BIOMARKER TO PREDICT AND DIAGNOSE AN INCREASED RISK OF ENDOMETRIAL CANCER AND GENE SILENCING OF PME-1 TO INHIBIT EPITHELIAL TO MESENCHYMAL TRANSITION” (Medical Diagnostic Laboratories, L.L.C., priority 2018, published 2020).
Residue numbers refer to the chain shown, from its start.

B1: Endogenous Ppp6c, the catalytic subunit of PP6 (enzyme, human, UniProt O00743 1-305, looked up)
chain: MAPLDLDKYVEIARLCKYLPENDLKRLCDYVCDLLLEESNVQPVSTPVTVCGDIHGQFYDLCELFRTGGQVPDTNYIFMGDFVDRGYYSLETFTYLLALKAKWPDRITLLRGNHESRQITQVYGFYDECQTKYGNANAWRYCTKVFDMLTVAALIDEQILCVHGGLSPDIKTLDQIRTIERNQEIPHKGAFCDLVWSDPEDVDTWAISPRGAGWLFGAKVTNEFVHINNLKLICRAHQLVHEGYKFMFDEKLVTVWSAPNYCYRCGNIASIMVFKDVNTREPKLFRAVPDSERVIPPRTTTPYFL
notes: Endogenous protein of ECC-1 cell lysate, probed by western blot with anti-Ppp6c; also called protein phosphatase 6 catalytic subunit

Assays:
[1] = test system: RL95-2 cells; assay: TUNEL assay; type: cell-based, human; conditions: 100 nM siRNA, vs control siRNA; DNase positive control
Text: To test for the involvement of apoptosis, we used siRNA against PME-1 or control siRNA and conducted an immunofluorescence assay called a TUNEL assay. In this assay, all cells were stained blue with the nuclear stain, DAPI, and cells that were undergoing apoptosis would stain green with the addition of fluorescein, which bound to fragmented DNA. Fragmented DNA is a hallmark of apoptotic cells. […] A positive control was included in the assay to determine that the assay conditions were optimal. In the positive control, RL95-2 cells were treated with DNase.
RL95-2 cells were plated in a chamber-slide and allowed to grow over night at 37° C. Cells were transfected the next day with 100 nM of siRNA (Thermo Scientific) using Dharmafect 1 transfection reagent (siRNA sequences are summarized in Table S2). Transfections were repeated on day four and the cultures were terminated the day after. The assay was performed according to the manufacturer's instructions (Roche Applied Science, counterstained with DAPI and photographed using Leica DM16000 B microscope. Cells incubated with 1U/μl of DNase I (Life Technologies) served as a positive control. The experiment was repeated three times.

[2] = biological target: T1, FLAG-tagged PME-1 (over-expression of wild-type PME-1) (human, UniProt Q9Y570 1-386); assay: FLAG co-immunoprecipitation from ECC-1 lysate, western blot with anti-Ppp6c
T1 construct: Expressed in ECC-1 cells and pulled down from lysate with FLAG resin; also called FLAG-PME-1; protein methylesterase 1; not shown: FLAG tag; an N-terminal FLAG vector p3XFLAG-CMV-10 is named in the methods for RL95-2 cells
T1 sequence (looked up): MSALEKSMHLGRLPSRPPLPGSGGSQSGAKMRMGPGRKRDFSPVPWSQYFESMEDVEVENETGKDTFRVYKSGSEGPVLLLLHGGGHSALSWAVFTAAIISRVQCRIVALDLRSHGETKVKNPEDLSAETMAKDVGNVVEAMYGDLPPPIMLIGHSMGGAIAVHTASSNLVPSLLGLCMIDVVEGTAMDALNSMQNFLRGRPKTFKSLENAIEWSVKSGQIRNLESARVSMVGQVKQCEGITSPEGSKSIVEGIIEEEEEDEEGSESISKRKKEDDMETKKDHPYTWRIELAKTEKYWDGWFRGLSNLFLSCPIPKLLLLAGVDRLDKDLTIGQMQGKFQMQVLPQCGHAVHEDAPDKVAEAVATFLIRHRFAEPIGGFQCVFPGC

[3] = biological target: T2, FLAG-tagged PME-1 S156A (catalytically inactive mutant) (human, UniProt Q9Y570 1-386); assay: as above
T2 construct: Expressed in ECC-1 cells and pulled down from lysate with FLAG resin; also called FLAG-PME-1 S156A; FLAG PME-1 S156A; not shown: FLAG tag; an N-terminal FLAG vector p3XFLAG-CMV-10 is named in the methods for RL95-2 cells
T2 sequence (looked up): T1 sequence (looked up) with S156A

Row | Molecule | detection of apoptotic cells [1] | binding result [2] | binding result [3]
1 | PPME1 siRNA no. 1: siRNA, SEQ ID NO: 4: TGG CTG GTG TTG ATA GAT T, bp 959-977 (guide TGGCTGGTGTTGATAGATT; listed as DNA, chemistry not given here; listed as Homo sapiens) | did not lead to detection of apoptotic cells | – | –
2 | B1 | – | no binding | no binding
